Measurements published in patent publication US7553821B2, “Methods for selectively modulating survivin apoptosis pathways” (Yale University, priority 2000, dated 2009).

Experiments:
caspase-9 [1] = target: T1, caspase-9 (Homo sapiens, UniProt P55211); assay: Co-immunoprecipitation of survivin and caspase-9 from HeLa cells; assay type: binding; conditions: viable HeLa cells 24 h after transfection
T1 construct: immunoprecipitated with an antibody to HA followed by Western blotting with an antibody to caspase-9; endogenous in cells; host or cells: HeLa
T1 sequence (P55211 1-416): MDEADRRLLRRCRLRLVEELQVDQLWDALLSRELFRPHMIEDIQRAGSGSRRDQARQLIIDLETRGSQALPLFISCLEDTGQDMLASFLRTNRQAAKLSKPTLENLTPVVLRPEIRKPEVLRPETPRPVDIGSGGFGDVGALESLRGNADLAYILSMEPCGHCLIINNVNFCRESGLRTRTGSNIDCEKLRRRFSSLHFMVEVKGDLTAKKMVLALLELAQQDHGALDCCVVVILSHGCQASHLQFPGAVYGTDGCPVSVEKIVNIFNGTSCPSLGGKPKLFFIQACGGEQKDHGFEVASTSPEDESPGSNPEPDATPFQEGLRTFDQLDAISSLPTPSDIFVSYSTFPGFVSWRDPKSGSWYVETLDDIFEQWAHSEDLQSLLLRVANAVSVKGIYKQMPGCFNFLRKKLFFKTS
Experimental: (§1) Asynchronously growing HeLa cells were transfected with HA-wild type survivin (WT) or HA-survivin(T34A) (T34A), detergent-solubilized after 24 h and immunoprecipitated with an antibody to HA followed by Western blotting with an antibody to caspase-9. Arrow, position of 46 kDa proform caspase-9.
(§2) HeLa cells were transfected with the indicated HA-constructs, synchronized to the G1/S boundary by a 16-h treatment with thymidine and released. Aliquots of the various cultures were immunoprecipitated at the indicated time intervals with an antibody to HA, and immunoblotted with antibodies to caspase-9 or HA. P, pellet; S, supernatant. For all panels, molecular weight markers are indicated on the left.
(§3) Transfection experiments. For transient transfection, HeLa cells in C-6 tissue culture plates (Costar, Cambridge, Mass.) at ˜60-70% confluency, were incubated in 1 ml of serum-free OptiMEM medium (Life Technologies, Gaithersburg, Md.) for 20 min, and transfected with 2.5 μg of the various plasmid cDNAs plus 9 μl Lipofectamine (Life Technologies). After a 5 h incubation at 37° C., the mixture was aspirated and substituted with complete growth medium for 48-72 h. […] Gated GFP-expressing cells were analyzed for DNA content by flow cytometry on a FACSort (Becton Dickinson, San Jose, Calif.) using a Cell Quest software. […]

caspase-9 [2] = assay: as above; assay type: binding; conditions: synchronized HeLa cells entering mitosis 12 h after thymidine release
Experimental: as §1, §2, §3

survivin(T34A): dominant-negative, non-phosphorylatable survivin mutant with Thr34→Ala substitution, expressed from transfected cDNA (also HA- or GFP-tagged)
caspase-9 associated with HA immunoprecipitates by Western blotting (caspase-9 [1]): presence of associated ˜46 kDa proform caspase-9 | caspase-9 associated with HA immunoprecipitates by Western blotting (caspase-9 [2]): did not contain associated proform or active caspase-9 bands
